# Assay results as given in the supplement of paper PMC7877785.
# ± gives the uncertainty stated by the source.
# Assay: self-splicing fitness, log relative to wild type (ln ratio); higher = more splicing; Tetrahymena group I intron in knt gene, E. coli kanamycin selection, DiMSum; sequences stand for … in CUCUCU…GGAGGGAAAAGUUAUCAGGCAUGCACCUGGUAGCUAGUCUUUAAACCAAUAGAUUGCAUCGGUUUAAAAGGCAAGACCGUCAAAUUGCGGGAAAGGGGUCAACAGCCGUUCAGUACCAAGUCUCAGGGGAAACUUUGAGAUGGCCUUGCAAAGGGUAUGGUAAUAAGCUGACGGACAUGGUCCUAACCACGCAGCCAAGUCCUAAGUCAACAGAUCUUCUGUUGAUAUGGAUGCAGUUCACAGACUAAAUGUCGGUCGGGGAAGAUGUAUUCUUCUCAUAAGAUAUAGUCGGACCUCUCCUUAAUGGGAGCUAGCGGAUGAAGUGAUGCAACACUGGAGCCGCUGGGAACUAAUUUGUAUGCGAAAGUAUAUUGAUUAGUUUUGGAGUACUCGUGGUCG
# Procedure, shortened: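 Colonies from six replicate transformations of E. coli BL21(DE3) were pooled and amplicon-sequenced on an Illumina HiSeq 2500. The library placed an intron with all eight P1ex-region nucleotides randomised inside the knt kanamycin-resistance gene on pET-22b(+), and cells grew overnight at 37°C or 30°C on LB agar with or without 25 μg/mL kanamycin (plus 100 μg/mL carbenicillin, 50 μM IPTG, 0.2% rhamnose). Fitness is the DiMSum error-weighted combination of wild-type-normalised replicate fold changes, kanamycin versus none.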
sequence,measurement,setting,value
GGAGAGCAAUAUUACGCUCA,self-splicing fitness (ln),30 °C,-2.77 ± 0.27
same,self-splicing fitness (ln),37 °C,-0.851 ± 0.26
AUCCAGCAAUAUUACGUAGU,self-splicing fitness (ln),30 °C,-1.54 ± 0.074
same,self-splicing fitness (ln),37 °C,-0.703 ± 0.093
GAAAAGCAAUAUUACGACGG,self-splicing fitness (ln),30 °C,-2.29 ± 0.17
same,self-splicing fitness (ln),37 °C,-2.4 ± 0.32
GCCUAGCAAUAUUACGGGGG,self-splicing fitness (ln),30 °C,-2.92 ± 0.22
same,self-splicing fitness (ln),37 °C,-1.34 ± 0.13
GAACAGCAAUAUUACGUUUC,self-splicing fitness (ln),30 °C,-4.43 ± 0.14
same,self-splicing fitness (ln),37 °C,-2.53 ± 0.14
GCGCAGCAAUAUUACGAGUG,self-splicing fitness (ln),30 °C,-1.6 ± 0.1
same,self-splicing fitness (ln),37 °C,-1.47 ± 0.15
CGGUAGCAAUAUUACGGUAA,self-splicing fitness (ln),30 °C,-2.99 ± 0.29
same,self-splicing fitness (ln),37 °C,-3.12 ± 0.3
CACCAGCAAUAUUACGCAUA,self-splicing fitness (ln),30 °C,-2.57 ± 0.12
same,self-splicing fitness (ln),37 °C,-1.27 ± 0.1
GUCGAGCAAUAUUACGCGAA,self-splicing fitness (ln),30 °C,-1.39 ± 0.17
same,self-splicing fitness (ln),37 °C,0.0361 ± 0.17
ACAUAGCAAUAUUACGGACA,self-splicing fitness (ln),30 °C,-1.57 ± 0.16
same,self-splicing fitness (ln),37 °C,-0.382 ± 0.14
CCCAAGCAAUAUUACGCUAA,self-splicing fitness (ln),30 °C,-3.05 ± 0.29
same,self-splicing fitness (ln),37 °C,-1.23 ± 0.21
AGGGAGCAAUAUUACGGGGG,self-splicing fitness (ln),30 °C,-2.67 ± 0.2
same,self-splicing fitness (ln),37 °C,-3.03 ± 0.37
CAGGAGCAAUAUUACGCAAU,self-splicing fitness (ln),37 °C,-1.35 ± 0.27
ACUCAGCAAUAUUACGUUUG,self-splicing fitness (ln),30 °C,-2.36 ± 0.095
same,self-splicing fitness (ln),37 °C,-1.94 ± 0.14
UCUAAGCAAUAUUACGUAUC,self-splicing fitness (ln),30 °C,-4.13 ± 0.24
same,self-splicing fitness (ln),37 °C,-3.01 ± 0.21
UCGCAGCAAUAUUACGUGCG,self-splicing fitness (ln),30 °C,-4.06 ± 0.22
same,self-splicing fitness (ln),37 °C,-3.23 ± 0.3
UAAUAGCAAUAUUACGGACU,self-splicing fitness (ln),30 °C,-1.25 ± 0.15
same,self-splicing fitness (ln),37 °C,-1.43 ± 0.18
AUAGAGCAAUAUUACGGAGG,self-splicing fitness (ln),30 °C,-3.24 ± 0.22
same,self-splicing fitness (ln),37 °C,-1.8 ± 0.23
UGCUAGCAAUAUUACGAGUU,self-splicing fitness (ln),30 °C,-1.64 ± 0.11
same,self-splicing fitness (ln),37 °C,0.518 ± 0.12
GGACAGCAAUAUUACGCCUU,self-splicing fitness (ln),30 °C,-0.676 ± 0.057
same,self-splicing fitness (ln),37 °C,-0.194 ± 0.069
UAUCAGCAAUAUUACGCCUG,self-splicing fitness (ln),30 °C,-0.368 ± 0.1
same,self-splicing fitness (ln),37 °C,-0.425 ± 0.1
UAAAAGCAAUAUUACGAAAU,self-splicing fitness (ln),30 °C,-3.04 ± 0.16
same,self-splicing fitness (ln),37 °C,-2.45 ± 0.21
CAAGAGCAAUAUUACGUGUU,self-splicing fitness (ln),30 °C,-3.47 ± 0.15
same,self-splicing fitness (ln),37 °C,-3.58 ± 0.26
UUUGAGCAAUAUUACGUUUC,self-splicing fitness (ln),37 °C,-2.62 ± 0.35
ACGGAGCAAUAUUACGUACU,self-splicing fitness (ln),30 °C,-1.69 ± 0.091
same,self-splicing fitness (ln),37 °C,-2.32 ± 0.16
CGAGAGCAAUAUUACGGACU,self-splicing fitness (ln),30 °C,-1.89 ± 0.29
same,self-splicing fitness (ln),37 °C,-2.14 ± 0.38
AGAAAGCAAUAUUACGCUAG,self-splicing fitness (ln),30 °C,-3.32 ± 0.22
same,self-splicing fitness (ln),37 °C,-2.65 ± 0.21
GACGAGCAAUAUUACGUGGU,self-splicing fitness (ln),30 °C,-2.84 ± 0.1
same,self-splicing fitness (ln),37 °C,-2.77 ± 0.14
CAUCAGCAAUAUUACGCUUC,self-splicing fitness (ln),30 °C,-2.2 ± 0.18
same,self-splicing fitness (ln),37 °C,-0.251 ± 0.12
GGAUAGCAAUAUUACGAAAC,self-splicing fitness (ln),30 °C,-1.67 ± 0.31
same,self-splicing fitness (ln),37 °C,-0.834 ± 0.23
AGCUAGCAAUAUUACGUGAG,self-splicing fitness (ln),30 °C,-2.57 ± 0.12
same,self-splicing fitness (ln),37 °C,-2.28 ± 0.16
UCUAAGCAAUAUUACGCUUU,self-splicing fitness (ln),30 °C,-3.36 ± 0.21
same,self-splicing fitness (ln),37 °C,-2.94 ± 0.48
UGAAAGCAAUAUUACGGGGG,self-splicing fitness (ln),30 °C,-2.07 ± 0.17
same,self-splicing fitness (ln),37 °C,-2.89 ± 0.26
GUAAAGCAAUAUUACGGUCG,self-splicing fitness (ln),30 °C,-0.377 ± 0.056
same,self-splicing fitness (ln),37 °C,-0.0786 ± 0.088
CCAUAGCAAUAUUACGGAUG,self-splicing fitness (ln),30 °C,-2.42 ± 0.11
same,self-splicing fitness (ln),37 °C,-1.43 ± 0.11
AGGUAGCAAUAUUACGCGCC,self-splicing fitness (ln),30 °C,-2.6 ± 0.032
same,self-splicing fitness (ln),37 °C,-1.56 ± 0.043
ACGUAGCAAUAUUACGGCGU,self-splicing fitness (ln),30 °C,-3.88 ± 0.14
same,self-splicing fitness (ln),37 °C,-2.48 ± 0.15
CACGAGCAAUAUUACGGUCC,self-splicing fitness (ln),30 °C,-4.36 ± 0.28
same,self-splicing fitness (ln),37 °C,-3.16 ± 0.33
CUUGAGCAAUAUUACGAAAG,self-splicing fitness (ln),30 °C,-2.3 ± 0.25
same,self-splicing fitness (ln),37 °C,-3.32 ± 0.46
UGCGAGCAAUAUUACGGACA,self-splicing fitness (ln),30 °C,-0.643 ± 0.14
same,self-splicing fitness (ln),37 °C,0.226 ± 0.2
GUGAAGCAAUAUUACGUCCC,self-splicing fitness (ln),30 °C,-1.28 ± 0.35
same,self-splicing fitness (ln),37 °C,-0.367 ± 0.2
GGUAAGCAAUAUUACGUAAA,self-splicing fitness (ln),30 °C,-0.961 ± 0.083
same,self-splicing fitness (ln),37 °C,-1.13 ± 0.13
UGAUAGCAAUAUUACGAGCG,self-splicing fitness (ln),30 °C,-0.553 ± 0.11
same,self-splicing fitness (ln),37 °C,0.433 ± 0.15
AAUCAGCAAUAUUACGAAUC,self-splicing fitness (ln),30 °C,-0.973 ± 0.1
same,self-splicing fitness (ln),37 °C,0.372 ± 0.12
CCCGAGCAAUAUUACGGACC,self-splicing fitness (ln),30 °C,-3 ± 0.28
UACGAGCAAUAUUACGGCAA,self-splicing fitness (ln),30 °C,-1.96 ± 0.24
same,self-splicing fitness (ln),37 °C,-0.476 ± 0.18
GGCCAGCAAUAUUACGCCGU,self-splicing fitness (ln),30 °C,-2.39 ± 0.22
same,self-splicing fitness (ln),37 °C,-1.48 ± 0.19
GACCAGCAAUAUUACGGCAA,self-splicing fitness (ln),30 °C,-0.359 ± 0.067
same,self-splicing fitness (ln),37 °C,-0.32 ± 0.078
GAAUAGCAAUAUUACGGCCG,self-splicing fitness (ln),30 °C,-0.339 ± 0.18
same,self-splicing fitness (ln),37 °C,-0.0585 ± 0.21
GUCCAGCAAUAUUACGACAU,self-splicing fitness (ln),30 °C,-0.524 ± 0.012
same,self-splicing fitness (ln),37 °C,0.0313 ± 0.032
CUGAAGCAAUAUUACGCUGG,self-splicing fitness (ln),30 °C,-3.37 ± 0.33
same,self-splicing fitness (ln),37 °C,-2.3 ± 0.34
AUUUAGCAAUAUUACGGCCC,self-splicing fitness (ln),30 °C,-1.06 ± 0.2
same,self-splicing fitness (ln),37 °C,-0.289 ± 0.3
CGCCAGCAAUAUUACGGCCC,self-splicing fitness (ln),30 °C,-2.2 ± 0.12
same,self-splicing fitness (ln),37 °C,-0.207 ± 0.25
UGGUAGCAAUAUUACGUAGG,self-splicing fitness (ln),30 °C,-1.25 ± 0.14
same,self-splicing fitness (ln),37 °C,-1.35 ± 0.25
CGUGAGCAAUAUUACGUAAU,self-splicing fitness (ln),30 °C,-3.22 ± 0.26
same,self-splicing fitness (ln),37 °C,-2.19 ± 0.25
AUUAAGCAAUAUUACGCUCU,self-splicing fitness (ln),30 °C,-0.588 ± 0.18
same,self-splicing fitness (ln),37 °C,0.11 ± 0.16
GGUAAGCAAUAUUACGCGUU,self-splicing fitness (ln),30 °C,-1.34 ± 0.091
same,self-splicing fitness (ln),37 °C,-0.615 ± 0.13
AAUAAGCAAUAUUACGUGUA,self-splicing fitness (ln),30 °C,-2.16 ± 0.12
same,self-splicing fitness (ln),37 °C,-1.12 ± 0.11
UCGAAGCAAUAUUACGUAAA,self-splicing fitness (ln),30 °C,-1.72 ± 0.11
same,self-splicing fitness (ln),37 °C,-0.804 ± 0.14
AGUUAGCAAUAUUACGCCCU,self-splicing fitness (ln),30 °C,-0.19 ± 0.12
same,self-splicing fitness (ln),37 °C,-0.312 ± 0.15
